In patent US20250066499A1 (SUNSHINE GUOJIAN PHARMACEUTICAL SHANGHAI, published 2025):
Positions count from the first letter of the chain named.

Experiments:
Test in all cases: ELISA, biotinylated antigen on streptavidin plate
CD73-ND-L184A = target: T1, CD73-ND-L184A (human, UniProt P21589 27-317)
T1 construct: Alanine mutant of CD73-ND
T1 sequence: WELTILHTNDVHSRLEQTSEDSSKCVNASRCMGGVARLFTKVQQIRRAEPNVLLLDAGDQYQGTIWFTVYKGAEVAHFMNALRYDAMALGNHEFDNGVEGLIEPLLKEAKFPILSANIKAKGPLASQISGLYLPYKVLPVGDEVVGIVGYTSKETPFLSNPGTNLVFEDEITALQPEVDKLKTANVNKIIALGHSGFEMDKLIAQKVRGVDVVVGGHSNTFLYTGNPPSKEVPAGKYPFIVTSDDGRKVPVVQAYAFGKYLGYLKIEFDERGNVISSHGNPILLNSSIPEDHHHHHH
Experimental: (§1) The ELISA plates were coated with SA protein diluted to 1.5 μg/mL in coating buffer (50 mM carbonate coating buffer, pH 9.6) and incubated overnight at 4° C. The supernatant was discarded, and the plates were washed three times with PBST. Then, 5% skimmed milk powder prepared with PBS was added for blocking and the plates were incubated for 2 h at 37° C. After washing the plates once with PBST, CD73-biotin protein (prepared by biotinylating CD73-His protein according to the EZ-Link NHS-Biotin Reagent instructions) was diluted to 0.5 μg/mL and added at 100 μL/well for incubation at room temperature for 1 h. The plates were washed three times with PBST, and the prepared murine-derived monoclonal antibodies against human CD73 were serially diluted with 1% BSA buffer prepared with PBST and added to the ELISA plates at 100 μl/well. The plates were incubated at 37° C. for 1 h. After washing the plates three times with PBST, HRP-labeled goat anti-mouse IgG secondary antibody was added and the plates were incubated for 30 min at 37° C. After washing the plates three times with PBST, the residual droplets were patted dry on absorbent paper as much as possible. Then, 100 μl of TMB color developing solution was added to each well, and the plates were incubated in the dark at room temperature for 5 min for color development. Subsequently, 50 μl of 2M H₂SO₄ stop solution was added to each well to terminate the substrate reaction. The OD values were read at 450 nm using a multimode microplate reader to analyze the binding ability of the tested antibodies to the target antigen human CD73-His.
(§2) Referring to the experimental method in Example 3, the affinity of 48A11-HuV33 for various mutant proteins of CD73-ND was determined. The SA protein was diluted to 1 μg/mL for coating the ELISA plates, and the biotinylated CD73 protein (CD73-biotin) was used at a concentration of 0.1 μg/mL.

CD73-ND-D142A = target: T2, CD73-ND-D142A (human, UniProt P21589 27-317)
T2 construct: Alanine mutant of CD73-ND
T2 sequence: T1 sequence with D142A, A184L
Experimental: as §1, §2

CD73-ND-P139A = target: T3, CD73-ND-P139A (human, UniProt P21589 27-317)
T3 construct: Alanine mutant of CD73-ND
T3 sequence: T1 sequence with P139A, A184L
Experimental: as §1, §2

CD73-ND-V140A = target: T4, CD73-ND-V140A (human, UniProt P21589 27-317)
T4 construct: Alanine mutant of CD73-ND
T4 sequence: T1 sequence with V140A, A184L
Experimental: as §1, §2

CD73-ND-his = target: T5, CD73-ND-his (human, UniProt P21589 27-317)
T5 construct: Biotinylated and captured on streptavidin in the ELISA
T5 sequence: T1 sequence with A184L
Experimental: as §1, §2

CD73-ND-T183A = target: T6, CD73-ND-T183A (human, UniProt P21589 27-317)
T6 construct: Alanine mutant of CD73-ND
T6 sequence: T1 sequence with T183A, A184L
Experimental: as §1, §2

B1: 48A11-HuV33 (antibody, human IgG4, V domains shown)
VH: QVQLVQSGAEVKKPGASVKVSCKASGYTFTSYWMHWVRQAPGQGLEWIGEINPSIGRTNYNEKFKSRVTLTRDTSTSTAYMELSSLRSEDTAVYYCARRVYGTMDYWGQGTLVTVSS
VL: DIQMTQSPSSLSASVGDRVTITCKASQDINSYLSWFQQKPGKSPKLLIYRANIWVDGVPSRFSGSGSGQDYTFTISSLQPEDIATYYCLQYDELYTFGQGTKVEIK
notes: Humanized
B1 gave an EC50 (CD73-ND-L184A) of 0.612 nM, an EC50 (CD73-ND-D142A) of 0.344 nM and an EC50 (CD73-ND-P139A) of 4.34 nM. It also gave an EC50 (CD73-ND-V140A) of 0.098 nM, an EC50 (CD73-ND-his) of 0.178 nM and an EC50 (CD73-ND-T183A) of 0.159 nM.
